According to patent publication US11505783B2, “Differentiation of human embryonic stem cells” (Janssen Biotech, Inc., priority 2007, dated 2022):

Tested on: human embryonic stem cell line H1
Assay: FACS analysis of insulin and synaptophysin in stage 6 cultures, Chordin instead of Noggin (Example 15)
Format: cell-based
Settings: 50-100 ng/ml at stages 3-4 instead of Noggin, compared with Noggin
Protocol: Cells were dissociated into single cells from monolayer cultures using TrypLE Express (Invitrogen, Carlsbad, Calif.) and washed in cold PBS. For fixation, cells were resuspended in 200-300 μl Cytofix/Cytoperm Buffer (BD 554722, BD, Ca) and incubated for 30 min at 4° C. Cells were washed two times in 1 ml Perm/Wash Buffer Solution (BD 554723) and resuspended in 100 μl staining/blocking solution containing 2% normal goat serum in Perm/Wash buffer. For flow cytometric analysis, cells were stained with the following primary antibodies: Anti-Insulin (Rabbit mAb, Cell Signaling No. C27C9; 1:100 dilution), Anti-Glucagon (Mouse Mab, Sigma No. G2654, 1:100); Anti-Synaptophysin (Rabbit Polyclonal antibody, DakoCytomation No A0010, 1:50); Cells were incubated for 30 min at 4° C. followed by two washes in Perm/Wash buffer and further 30 min incubation in appropriate secondary antibodies as follows: Goat anti-Rabbit Alexa 647 (Invitrogen No. A21246) or Goat anti-Mouse 647 (Invitrogen No. A21235); Goat anti-Rabbit R-PE (BioSource No. ALI4407). All secondary antibodies were used at 1:200 dilution. Cells were washed at least once in Perm/Wash buffer and analyzed using BD FACSArray. A least 10,000 events were acquired for analysis. Controls included undifferentiated H1 cells and b-TC (ATCC, VA) cell line. FIGS. 20A-20C show the percentage insulin positive and synapthophysin+ cells in stage 6 cultures. […]

B1: Chordin: known inhibitor of BMP signaling (R&D Systems) (protein, UniProt Q9H2X0 27-955, looked up)
Chordin: AGPEPPVLPIRSEKEPLPVRGAAGCTFGGKVYALDETWHPDLGEPFGVMRCVLCACEAPQWGRRTRGPGRVSCKNIKPECPTPACGQPRQLPGHCCQTCPQERSSSERQPSGLSFEYPRDPEHRSYSDRGEPGAEERARGDGHTDFVALLTGPRSQAVARARVSLLRSSLRFSISYRRLDRPTRIRFSDSNGSVLFEHPAAPTQDGLVCGVWRAVPRLSLRLLRAEQLHVALVTLTHPSGEVWGPLIRHRALAAETFSAILTLEGPPQQGVGGITLLTLSDTEDSLHFLLLFRGLLEPRSGGLTQVPLRLQILHQGQLLRELQANVSAQEPGFAEVLPNLTVQEMDWLVLGELQMALEWAGRPGLRISGHIAARKSCDVLQSVLCGADALIPVQTGAAGSASLTLLGNGSLIYQVQVVGTSSEVVAMTLETKPQRRDQRTVLCHMAGLQPGGHTAVGICPGLGARGAHMLLQNELFLNVGTKDFPDGELRGHVAALPYCGHSARHDTLPVPLAGALVLPPVKSQAAGHAWLSLDTHCHLHYEVLLAGLGGSEQGTVTAHLLGPPGTPGPRRLLKGFYGSEAQGVVKDLEPELLRHLAKGMASLMITTKGSPRGELRGQVHIANQCEVGGLRLEAAGAEGVRALGAPDTASAAPPVVPGLPALAPAKPGGPGRPRDPNTCFFEGQQRPHGARWAPNYDPLCSLCTCQRRTVICDPVVCPPPSCPHPVQAPDQCCPVCPEKQDVRDLPGLPRSRDPGEGCYFDGDRSWRAAGTRWHPVVPPFGLIKCAVCTCKGGTGEVHCEKVQCPRLACAQPVRVNPTDCCKQCPVGSGAHPQLGDPMQADGPRGCRFAGQWFPESQSWHPSVPPFGEMSCITCRCGAGVPHCERDDCSLPLSCGSGKESRCCSRCTAHRRPAPETRTDPELEKEAEGS
expression of insulin and synaptophysin by FACS: very similar expression
